According to patent EP0799050B1, “RADIOLABELED ANNEXIN-GALACTOSE CLUSTER CONJUGATES” (NEORX CORPORATION, priority 1994, dated 1996):

Experiment: blood clearance in the swine model
Settings: in vivo
Experimental: Annexin V-galactose was radiolabeled with technetium-99m using a diamide dimercaptide (N2S2) chelate as described by Kasina et. al., J. Nucl. Med. 32: 1445-51, 1991. The preformed active ester chelate was diluted with 2.0 ml water and purified before conjugation to annexin V-galactose using a modified conditioned C-18 column (commercially available from J.T. Baker), as described by Fritzberg et. al., Proc. Natl. Acad. Sci. USA 85: 4025-29, 1988, washing with 2.0 ml water eight times followed by drying the column for 5 min and eluting with 100% acetonitrile. The solvent was removed under a steady stream of N2. Then 0.15 ml of PBS, 0.35 ml of annexin V-galactose (4.7:1 galactose:annexin V) at 1.0 mg/ml, and 0.2 ml of 0.2M bicarbonate buffer (pH 10.0) were added for conjugation to Tc-99m-N2S2-TFP ester. […] Fractions of 1.0 ml were collected, and fractions containing annexin V were pooled. Protein concentration was determined by UV absorption at 280 nm. […] The ITLC sheets were cut into two halves, and each half was counted in a gamma counter or a dose calibrator. […] An animal model, as previously described in Example III, was employed to evaluate blood clearance of the molecules.

Question: Which results are given for “Tc-99m-annexin V: annexin V radiolabeled with Tc-99m by a diamide dimercaptide N2S2 chelate (Example I)”?
Answer: %ID/g a: a = 0.0389 %ID/g; %ID/g b: b = 0.0300 %ID/g; t1/2 a: a = 9.6 min; t1/2 b: b = 46 min
